# Columns and labels:
# [1] = molecular target: T1, Ctla-4 with EGFP-tag (labeled protein of the MST assay) (zebrafish); assay: MST; Monolith NT.115; labeled proteins (Cd28/Ctla-4 with EGFP-tag) incubated with 16 doubling dilutions of unlabeled Cd80/86 from 3.2 µM, 10 min at room temperature; 25℃, 40% LED, medium MST power
# T1 construct: zebrafish Ctla-4 (XM_005167519.4)
# [2] = molecular target: T2, Cd28 with EGFP-tag (labeled protein of the MST assay) (zebrafish); assay: as above
# T2 construct: zebrafish Cd28; identifier not given
# T2 sequence (partner, as listed by the source): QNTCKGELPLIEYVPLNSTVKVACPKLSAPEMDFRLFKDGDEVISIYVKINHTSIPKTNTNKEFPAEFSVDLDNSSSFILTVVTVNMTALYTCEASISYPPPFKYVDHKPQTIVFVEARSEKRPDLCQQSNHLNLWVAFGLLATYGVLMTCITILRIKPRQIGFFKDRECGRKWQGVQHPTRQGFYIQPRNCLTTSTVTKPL
# T1 sequence (partner, as listed by the source): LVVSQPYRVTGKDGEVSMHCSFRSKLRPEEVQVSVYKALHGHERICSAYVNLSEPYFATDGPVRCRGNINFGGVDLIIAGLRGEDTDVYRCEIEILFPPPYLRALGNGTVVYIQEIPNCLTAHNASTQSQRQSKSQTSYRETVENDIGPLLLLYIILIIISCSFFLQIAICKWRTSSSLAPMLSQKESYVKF
binder,measurement,setting,value
soluble Cd80/86 (extracellular domain) (domain or fragment) DNSQPKNISAVVGRSVTFRCPWNLSIPVYRLYIQKLENQPLFINGFNNGKKLPVSPEYQDRTEVNQAELSMEMTNIKLSDEGSYECVVFSSTSSRDIFQINLKVTAEFTTPESKSECSENDGAKKGRSCQMSCSAAGGYPVSDVKWLGLNQSRIRVLQNETAENSTSKTWSVNQTINYTCEHPINVSCDIGGSDSHTITICEAESFPLK,Kd,[1],500 nM
same,Kd,[2],2640 nM
